Measured values taken from patent US20260218270A1.

Experiments:
[1] = target: T1, fusion protein of SEQ ID NO: 16 (Nanoluc luciferase at the C-terminus, VWF A2 domain aa1574-1668, Flag-tag, C-terminal His-tag)
T1 chain: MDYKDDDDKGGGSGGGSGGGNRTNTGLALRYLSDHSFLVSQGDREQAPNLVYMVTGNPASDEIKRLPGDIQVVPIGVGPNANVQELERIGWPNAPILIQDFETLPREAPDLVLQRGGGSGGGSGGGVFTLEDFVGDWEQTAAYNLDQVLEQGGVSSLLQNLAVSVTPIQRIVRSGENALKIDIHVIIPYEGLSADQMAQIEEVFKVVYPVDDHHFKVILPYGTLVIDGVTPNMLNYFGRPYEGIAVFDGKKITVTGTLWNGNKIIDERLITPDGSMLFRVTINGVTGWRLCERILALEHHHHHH

[2] = target: T2, N-NLuc-VWFA2-C fusion protein (SEQ ID NO: 17)
T2 chain: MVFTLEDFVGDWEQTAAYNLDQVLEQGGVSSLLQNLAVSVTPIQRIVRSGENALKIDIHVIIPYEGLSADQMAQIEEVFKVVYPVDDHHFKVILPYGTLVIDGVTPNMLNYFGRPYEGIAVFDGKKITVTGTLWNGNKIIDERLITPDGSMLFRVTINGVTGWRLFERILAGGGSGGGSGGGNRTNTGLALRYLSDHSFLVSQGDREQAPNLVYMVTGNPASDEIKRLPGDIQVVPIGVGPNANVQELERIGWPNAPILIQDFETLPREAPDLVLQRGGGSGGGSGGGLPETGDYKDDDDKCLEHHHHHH

[3] = target: T3, fusion protein of SEQ ID NO: 15 (Nanoluc luciferase at the N-terminus, VWF A2 domain aa1574-1668, Flag-tag, C-terminal His-tag)
T3 chain: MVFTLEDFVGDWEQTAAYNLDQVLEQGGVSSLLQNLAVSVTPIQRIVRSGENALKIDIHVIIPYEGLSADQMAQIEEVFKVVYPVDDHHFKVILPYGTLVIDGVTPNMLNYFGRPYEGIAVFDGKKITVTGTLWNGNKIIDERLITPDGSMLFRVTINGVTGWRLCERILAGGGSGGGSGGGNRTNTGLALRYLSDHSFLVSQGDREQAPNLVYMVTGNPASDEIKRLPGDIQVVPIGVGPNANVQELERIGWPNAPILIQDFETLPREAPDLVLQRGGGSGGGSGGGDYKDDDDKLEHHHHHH

[4] = target: fusion protein of SEQ ID NO: 16 (Nanoluc luciferase at the C-terminus, VWF A2 domain aa1574-1668, Flag-tag, C-terminal His-tag); assay: cell-based or functional assay

luminescence (RLU) left on the Ni-NTA binding plate, A13 from lithium-heparin plasma, FIG. 8C [4]: 400000 RLU
B1: ADAMTS13 (protein)
chain: AAGGILHLELLVAVGPDVFQAHQEDTERYVLTNLNIGAELLRDPSLGAQFRVHLVKMVILTEPEGAPNITANLTSSLLSVCGWSQTINPEDDTDPGHADLVLYITRFDLELPDGNRQVRGVTQLGGACSPTWSCLITEDTGFDLGVTIAHEIGHSFGLEHDGAPGSGCGPSGHVMASDGAAPRAGLAWSPCSRRQLLSLLSAGRARCVWDPPRPQPGSAGHPPDAQPGLYYSANEQCRVAFGPKAVACTFAREHLDMCQALSCHTDPLDQSSCSRLLVPLLDGTECGVEKWCSKGRCRSLVELTPIAAVHGRWSSWGPRSPCSRSCGGGVVTRRRQCNNPRPAFGGRACVGADLQAEMCNTQACEKTQLEFMSQQCARTDGQPLRSSPGGASFYHWGAAVPHSQGDALCRHMCRAIGESFIMKRGDSFLDGTRCMPSGPREDGTLSLCVSGSCRTFGCDGRMDSQQVWDRCQVCGGDNSTCSPRKGSFTAGRAREYVTFLTVTPNLTSVYIANHRPLFTHLAVRIGGRYVVAGKMSISPNTTYPSLLEDGRVEYRVALTEDRLPRLEEIRIWGPLQEDADIQVYRRYGEEYGNLTRPDITFTYFQPKPRQAWVWAAVRGPCSVSCGAGLRWVNYSCLDQARKELVETVQCQGSQQPPAWPEACVLEPCPPYWAVGDFGPCSASCGGGLRERPVRCVEAQGSLLKTLPPARCRAGAQQPAVALETCNPQPCPARWEVSEPSSCTSAGGAGLALENETCVPGADGLEAPVTEGPGSVDEKLPAPEPCVGMSCPPGWGHLDATSAGEKAPSPWGSIRTGAQAAHVWTPAAGSCSVSCGRGLMELRFLCMDSALRVPVQEELCGLASKPGSRREVCQAVPCPARWQYKLAACSVSCGRGVVRRILYCARAHGEDDGEEILLDTQCQGLPRPEPQEACSLEPCPPRWKVMSLGPCSASCGLGTARRSVACVQLDQGQDVEVDEAACAALVRPEASVPCLIADCTYRWHVGTWMECSVSCGDGIQRRRDTCLGPQAQAPVPADFCQHLPKPVTVRGCWAGPCVGQGTPSLVPHEEAAAPGRTTATPAGASLEWSQARGLLFSPAPQPRRLLPGPQENSVQSSACGRQHLEPTGTIDMRGPGQADCAVAIGRPLGEVVTLRVLESSLNCSAGDMLLLWGRLTWRKMCRKLLDMTFSSKTNTLVVRQRCGRPGGGVLLRYGSQLAPETFYRECDMQLFGPWGEIVSPSLSPATSNAGGCRLFINVAPHARIAIHALATNMGAGTEGANASYILIRDTHSLRTTAFHGQQVLYWESESSQAEMEFSEGFLKAQASLRGQYWTLQSWVPEMQDPQSWKGKEGT
amount of fusion protein cleaved off and transferred to the new plate [1]: ~120 ng VWFA2-Nanoluc
luminescence (RLU) against NPP concentration, FIG. 1 [1]: This fusion protein is also cleaved by ADAMTS13 but here is not as much influence on light emission
luminescence (RLU) of fusion protein left on anti-VWF-A2 coated plate after incubation with 0-20% NPP [1]: did not demonstrate an effect of an increasing ADAMTS13 concentration
luminescence (RLU) transferred from anti-FLAG plate after A13 at 0-1 IU/mL [1]: a signal increase from ~1.5 towards ~1.7 M RLU for C-Flag
share of the initially offered quantity that was cleaved off and transferred [1]: ~12% of the initially offered quantity to the wells
SDS-PAGE (4-15% gradient, Coomassie Blue), FIG. 10 [2]: shows the expected fragments of the fusion-protein (SEQ ID NO: 17) after cleavage by adding ADAMTS13
luminescence (RLU) of fusion protein left on anti-VWF-A2 coated plate after incubation with 0-20% NPP [3]: shows a decreasing signal when the concentration NPP increases, suggesting that ADAMTS13 cleaves the fusion protein
